Measured values from paper PMC10693918.

Target: TniQ transposition protein of the type I-F3b CAST element Tn6900, His6-tagged
Experiment: cryo-EM structure

stoichiometry N: 2
Substance: TniQ transposition protein of the type I-F3b CAST element Tn6900, His6-tagged (natural protein)
